This is an account of results in patent publication US20210348152A1 (TECHNION RESEARCH AND DEVELOPMENT FOUNDATION, published 2021).

B9: p105-HA (other, UniProt P19838 1-968, looked up)
chain: MAEDDPYLGRPEQMFHLDPSLTHTIFNPEVFQPQMALPTDGPYLQILEQPKQRGFRFRYVCEGPSHGGLPGASSEKNKKSYPQVKICNYVGPAKVIVQLVTNGKNIHLHAHSLVGKHCEDGICTVTAGPKDMVVGFANLGILHVTKKKVFETLEARMTEACIRGYNPGLLVHPDLAYLQAEGGGDRQLGDREKELIRQAALQQTKEMDLSVVRLMFTAFLPDSTGSFTRRLEPVVSDAIYDSKAPNASNLKIVRMDRTAGCVTGGEEIYLLCDKVQKDDIQIRFYEEEENGGVWEGFGDFSPTDVHRQFAIVFKTPKYKDINITKPASVFVQLRRKSDLETSEPKPFLYYPEIKDKEEVQRKRQKLMPNFSDSFGGGSGAGAGGGGMFGSGGGGGGTGSTGPGYSFPHYGFPTYGGITFHPGTTKSNAGMKHGTMDTESKKDPEGCDKSDDKNTVNLFGKVIETTEQDQEPSEATVGNGEVTLTYATGTKEESAGVQDNLFLEKAMQLAKRHANALFDYAVTGDVKMLLAVQRHLTAVQDENGDSVLHLAIIHLHSQLVRDLLEVTSGLISDDIINMRNDLYQTPLHLAVITKQEDVVEDLLRAGADLSLLDRLGNSVLHLAAKEGHDKVLSILLKHKKAALLLDHPNGDGLNAIHLAMMSNSLPCLLLLVAAGADVNAQEQKSGRTALHLAVEHDNISLAGCLLLEGDAHVDSTTYDGTTPLHIAAGRGSTRLAALLKAAGADPLVENFEPLYDLDDSWENAGEDEGVVPGTTPLDMATSWQVFDILNGKPYEPEFTSDDLLAQGDMKQLAEDVKLQLYKLLEIPDPDKNWATLAQKLGLGILNNAFRLSPAPSKTLMDNYEVSGGTVRELVEALRQMGYTEAIEVIQAASSPVKTTSQAHSLPLSPASTRQQIDELRDSDSVCDSGVETSFRKLSFTESLTSGASLLTLNKMPHDYGQEGPLEGKI
notes: Co-expressed with FLAG-tagged KPC1 species in HEK293T cells and detected with anti-NF-κB1 after anti-FLAG immunoprecipitation; also called NF-κB1 p105; NF-kB1 p105; not shown: HA tag

Assay [1] concerns the target B9. Nature of the assay: co-immunoprecipitation (anti-FLAG) from HEK293T cells, western blot. The procedure: (§1) HEK293T cells were transiently transfected with the various KPC1 species along with p105-HA using the j etPEI reagent. 48 hours after transfection, the cells were harvested and lysed with RIPA buffer [150 mM NaCl, 0.5% sodium deoxycholate, 50 mM Tris-HCl (pH 8.0), 0.1% SDS, and 1% NP-40, supplemented with freshly added protease inhibitors mixture]. KPC1 species proteins were immunoprecipitated with immobilized anti-FLAG, with subsequent washing of the beads five times with RIPA buffer. The immunoprecipitated proteins were resolved by SDS-PAGE (10%, FIGS. 1A, 1B, 2A and 2B, with a gel gradient, of 4-20%; FIGS. 3A and 3B), and blotted onto nitrocellulose (FIGS. 1A, 1B, 2A and 2B) or PVDF (FIGS. 3A and 3B) membranes. p105 and KPC1 species were visualized using anti-NF-kB1 or anti-FLAG antibodies, respectively.
(§2) Identification of the region of KPC1 that is responsible for the interaction with p105. In order to identify the region of KPC1 that is responsible for the interaction with p105, several truncated segments of the DNA sequence of the KPC1 protein were cloned. The truncated segments were inserted into the pCAGGS expression vector to analyze their interaction with p105 by co-immunoprecipitation (Co-IP) from cells. HEK 293T cells were transfected with cDNAs coding for p105-HA, along with different fragments of KPC1 (FIG. 1A). Species of KPC1 were immunoprecipitated using an immobilized anti-Flag antibody. The precipitated proteins were resolved via SDS-PAGE and detected by Western blot using anti NF-κB1 and anti-FLAG antibodies.
On the technique in general: A western blot detects proteins with antibodies after separation by electrophoresis.

The target in assay [2] is T1, KPC1Δ967-1043 (FLAG-tagged) (Homo sapiens (Human), UniProt Q5XPI4 1-1314).
T1 construct: also called KPC1 species vii
T1 sequence: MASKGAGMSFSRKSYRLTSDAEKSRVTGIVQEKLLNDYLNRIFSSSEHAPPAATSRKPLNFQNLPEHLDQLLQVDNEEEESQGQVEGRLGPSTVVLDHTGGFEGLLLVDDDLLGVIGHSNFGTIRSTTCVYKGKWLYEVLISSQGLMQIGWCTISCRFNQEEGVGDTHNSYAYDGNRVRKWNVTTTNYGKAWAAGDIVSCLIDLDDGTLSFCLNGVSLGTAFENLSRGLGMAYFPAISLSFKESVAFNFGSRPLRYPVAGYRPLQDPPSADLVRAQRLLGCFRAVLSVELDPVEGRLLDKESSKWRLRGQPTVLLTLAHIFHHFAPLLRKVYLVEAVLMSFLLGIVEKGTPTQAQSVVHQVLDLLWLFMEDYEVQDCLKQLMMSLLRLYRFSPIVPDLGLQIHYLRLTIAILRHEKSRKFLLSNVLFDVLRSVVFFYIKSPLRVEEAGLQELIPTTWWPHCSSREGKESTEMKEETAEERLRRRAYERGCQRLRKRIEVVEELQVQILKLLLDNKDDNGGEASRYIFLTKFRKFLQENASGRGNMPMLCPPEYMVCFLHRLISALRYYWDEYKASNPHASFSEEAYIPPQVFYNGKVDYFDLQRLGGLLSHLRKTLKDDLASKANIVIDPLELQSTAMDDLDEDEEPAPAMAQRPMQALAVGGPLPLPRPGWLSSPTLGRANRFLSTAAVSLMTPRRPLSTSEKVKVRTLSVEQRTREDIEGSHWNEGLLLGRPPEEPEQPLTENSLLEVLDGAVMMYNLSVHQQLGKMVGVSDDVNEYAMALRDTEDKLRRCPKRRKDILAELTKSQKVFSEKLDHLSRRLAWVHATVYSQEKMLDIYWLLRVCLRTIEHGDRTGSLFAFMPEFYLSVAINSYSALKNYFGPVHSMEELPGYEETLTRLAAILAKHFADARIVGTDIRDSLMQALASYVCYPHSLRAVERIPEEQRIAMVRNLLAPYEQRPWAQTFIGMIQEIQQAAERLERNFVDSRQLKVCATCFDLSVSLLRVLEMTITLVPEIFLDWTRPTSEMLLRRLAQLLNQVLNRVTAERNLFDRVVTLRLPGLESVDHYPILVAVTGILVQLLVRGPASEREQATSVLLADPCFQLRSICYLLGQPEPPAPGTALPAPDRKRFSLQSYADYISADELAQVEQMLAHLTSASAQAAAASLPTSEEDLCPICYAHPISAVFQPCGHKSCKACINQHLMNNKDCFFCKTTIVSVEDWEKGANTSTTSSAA
The assay is described as above. The method, then:
as §1, §2

B1: RLW-KPC1 Δ 1-1253 (enzyme)
chain: RLWCPICYAHPISAVFQPCGHKSCKACINQHLMNNKDCFFCKTTIVSVEDWEKGANTSTTSSAA
notes: also called KPC1 species xv
For B1, the binding result in assay [1] is recorded as “no binding”.

B2: WIL-KPC1 Δ 1-1253 (enzyme)
chain: WILCPICYAHPISAVFQPCGHKSCKACINQHLMNNKDCFFCKTTIVSVEDWEKGANTSTTSSAA
notes: also called KPC1 species xx
Take B2: in assay [1], the binding result is “no binding”.

B3: KPC1Δ1-1017 (FLAG-tagged) (enzyme)
chain: LLQQGPDVAPSFLNSVLNQLNWAFSEFIGMIQEIQQAAERLERNFVDSRQLKVCATCFDLSVSLLRVLEMTITLVPEIFLDWTRPTSEMLLRRLAQLLNQVLNRVTAERNLFDRVVTLRLPGLESVDHYPILVAVTGILVQLLVRGPASEREQATSVLLADPCFQLRSICYLLGQPEPPAPGTALPAPDRKRFSLQSYADYISADELAQVEQMLAHLTSASAQAAAASLPTSEEDLCPICYAHPISAVFQPCGHKSCKACINQHLMNNKDCFFCKTTIVSVEDWEKGANTSTTSSAA
notes: Lacks amino acids 1-1017; also called KPC1 species x
As to B3, the binding result in assay [1] is given as “no binding”.

B4: VRLW-KPC1 Δ 1-1253 (enzyme)
chain: VRLWCPICYAHPISAVFQPCGHKSCKACINQHLMNNKDCFFCKTTIVSVEDWEKGANTSTTSSAA
notes: also called KPC1 species xiv
On to B4, for which the binding result in assay [1] was “no binding”.

B5: WILV-KPC1 Δ 1-1253 (enzyme)
chain: WILVCPICYAHPISAVFQPCGHKSCKACINQHLMNNKDCFFCKTTIVSVEDWEKGANTSTTSSAA
notes: also called KPC1 species xix
With B5, the binding result in assay [1] was “no binding”.

B6: LVRLW-KPC1 Δ 1-1253 (enzyme)
chain: LVRLWCPICYAHPISAVFQPCGHKSCKACINQHLMNNKDCFFCKTTIVSVEDWEKGANTSTTSSAA
notes: also called KPC1 species xiii
For B6, the binding result in assay [1] is given as “no binding”.

B7: WILVR-KPC1 Δ 1-1253 (enzyme)
chain: WILVRCPICYAHPISAVFQPCGHKSCKACINQHLMNNKDCFFCKTTIVSVEDWEKGANTSTTSSAA
notes: also called KPC1 species xviii
Turning to B7, the binding result in assay [1] is on record as “no binding”.

B8: KPC1 Δ 1-1253 (enzyme)
chain: CPICYAHPISAVFQPCGHKSCKACINQHLMNNKDCFFCKTTIVSVEDWEKGANTSTTSSAA
notes: also called KPC1 species xvi
For B8, the binding result in assay [1] is on record as “no binding”.
With B9, in assay [2], the binding result is “no binding”.

B10: ILVRLW-KPC1 Δ 1-1253 (enzyme)
chain: ILVRLWCPICYAHPISAVFQPCGHKSCKACINQHLMNNKDCFFCKTTIVSVEDWEKGANTSTTSSAA
notes: also called KPC1 species xii
Consider B10, for which the binding result in assay [1] is given as “no binding”.

B11: WILVRL-KPC1 Δ 1-1253 (enzyme)
chain: WILVRLCPICYAHPISAVFQPCGHKSCKACINQHLMNNKDCFFCKTTIVSVEDWEKGANTSTTSSAA
notes: also called KPC1 species xvii
Consider B11, for which, in assay [1], the binding result was “no binding”.

B12: KPC1Δ1-1042 (FLAG-tagged) (enzyme)
chain: EFIGMIQEIQQAAERLERNFVDSRQLKVCATCFDLSVSLLRVLEMTITLVPEIFLDWTRPTSEMLLRRLAQLLNQVLNRVTAERNLFDRVVTLRLPGLESVDHYPILVAVTGILVQLLVRGPASEREQATSVLLADPCFQLRSICYLLGQPEPPAPGTALPAPDRKRFSLQSYADYISADELAQVEQMLAHLTSASAQAAAASLPTSEEDLCPICYAHPISAVFQPCGHKSCKACINQHLMNNKDCFFCKTTIVSVEDWEKGANTSTTSSAA
notes: also called KPC1 species v
As for B12, the binding result in assay [1] is on record as “no binding”.

B13: KPC1Δ1-973 (FLAG-tagged) (enzyme)
chain: WRGCGFGYRYTRLPHLLKTKLEDANLPSLQKPCPSTLLQQHMADLLQQGPDVAPSFLNSVLNQLNWAFSEFIGMIQEIQQAAERLERNFVDSRQLKVCATCFDLSVSLLRVLEMTITLVPEIFLDWTRPTSEMLLRRLAQLLNQVLNRVTAERNLFDRVVTLRLPGLESVDHYPILVAVTGILVQLLVRGPASEREQATSVLLADPCFQLRSICYLLGQPEPPAPGTALPAPDRKRFSLQSYADYISADELAQVEQMLAHLTSASAQAAAASLPTSEEDLCPICYAHPISAVFQPCGHKSCKACINQHLMNNKDCFFCKTTIVSVEDWEKGANTSTTSSAA
notes: also called KPC1 species ix
Consider B13, for which the binding result in assay [1] is “no binding”.
